Drawing on paper PMC12669754, this text covers β-galactosidase (NFAT-LacZ) reporter activity of B3Z cells expressing DNGR-1 and SYK, stimulated with DNGR-1L, dose-dependent; EC50 for one substance.

The target of the test is murine DNGR-1 (CLEC9A) expressed in B3Z NFAT reporter cells with SYK (mouse) (UniProt Q8BRU4).
Sequence of UniProt Q8BRU4 (Q8BRU4 whole entry): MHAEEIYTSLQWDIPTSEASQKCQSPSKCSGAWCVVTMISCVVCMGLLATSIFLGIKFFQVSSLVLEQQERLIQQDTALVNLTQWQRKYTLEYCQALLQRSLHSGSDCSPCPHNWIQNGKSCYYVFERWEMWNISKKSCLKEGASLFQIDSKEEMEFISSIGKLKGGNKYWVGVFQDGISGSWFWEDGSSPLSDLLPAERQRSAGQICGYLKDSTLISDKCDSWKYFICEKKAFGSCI

Substance “DNGR-1 ligand (DNGR-1L), F-actin-myosin II complexes (from UniProt P68135 1-377)” registered a β-galactosidase (NFAT-LacZ) reporter activity of B3Z cells expressing DNGR-1 and SYK, stimulated with DNGR-1L, dose-dependent; EC50 of 5 nM.
